Data taken from the nanobody polyreactivity screen of Harvey et al. (2022).

Assay: yeast display, Sf9 membrane polyspecificity reagent, FACS + sequencing; frameworks hold sequencing errors
How it was run: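 Galactose induction of a Saccharomyces cerevisiae BJ5465 synthetic nanobody display library ran 36–48 hours. The cells were then stained for 1 hour at 4 °C with 10% biotinylated, detergent-solubilized Sf9 membrane reagent, pulled down on streptavidin microbeads and FACS-sorted into low and high (top ~1%) gates on expression and reagent-binding fluorescence. Labels for polyreactivity follow the gate of origin.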

| Sequence | polyreactivity (PSR sort gate) |
| --- | --- |
| QVQLVESGGGLVQAGGSLRLSCAASGIIFYKYSMGWYRQAPGKERELVAAITSGGGRTYYADSVKGRFTISRDNAKITVDLQMNSLKPEDTAVYYCAATRPATYAAYDYWGQGTQVTVSS | high polyreactivity |
| QVQLVESGGGLVQAGGSLRLSCAASGIIFYLYAMGWYIQAPGKERELVAAISWGGGTTYYADSVKGRFTISRDNAKNTVYLQMNSLKPEDTAVYYCAAETEYYSYRFDYWGQGTQVTVSS | high polyreactivity |
| QVQLVESGGGLVQAGGSLRLSCAASGIIFYLYAMGWYRQAPGKERELVAAISRRGGSTYYADSVKGRFTISRDNAKNTVYLQMNSLKPEDTAVYYCAATIGTFGYGYWGQGTQVTVSS | high polyreactivity |
| QVQLVESGGGLVQAGGSLRLSCAASGIIFYLYAMGWYRQAPGKERELVAAITLSGSTTYYADSVKGGFTISRDNAKNTVYLQMNSLKPEDTAVYYCNADTPVRSDYWGQGTQVTVSS | low polyreactivity |
| QVQLVESGGGLVQAGGSLRLSCAASGIIFYNNAMGWYRKAPGKERELVADITSGNTNYADSVKGRFTISRDNAKNTVYLQMNSLKPEDTAVYYCNAEDDYTYDRSFGGYKYDYWGQGTQVTVSS | low polyreactivity |
| QVQLVESGGGLVQAGGSLRLSCAASGIIFYPYAMGWYRQAPGKERELVAAISQSGGTTSYADSVKGRFTISRDNAKNTVYLQMNSLKPEDTAVYYCARRVSTRKRYYYWGQGTQVTVSS | high polyreactivity |
| QVQLVESGGGLVQAGGSLRLSCAASGIIFYPYAMGWYRQAPGKERELVAAISTSGGRTYYADSVKGRFTISRDNAKNTVYLQMNSLKPEDTAVYYCAADNSSGDVNGGGYWGQGTQVTVSS | low polyreactivity |
| QVQLVESGGGLVQAGGSLRLSCAASGIIFYRYAMGWYRQAPGKEREFVAAISWSGGSTTYADSVKGRFTISRDNAKNTVYLQMNSLKPEDTAVYYCNADRIYWSLWGPAYDYWGQGTQVTVSS | high polyreactivity |
| QVQLVESGGGLVQAGGSLRLSCAASGIIFYRYAMGWYRQAPGKERELVAAITWRGGSTYYADSVKGRFTISRDNAMNTVYLQMNSLKPEDTAVYYCAARRRATYELDYWGQGTQVNVSS | high polyreactivity |
| QVQLVESGGGLVQAGGSLRLSCAASGIIFYRYTKGWSRQAPGKETELVAGITRNGGSTYYADSVKGRFTISRVNAKNPVYLQMNSLKPEDTAVYYCATTLKFYWAKLDYRGQGTQVTVSS | low polyreactivity |
| QVQLVESGGGLVQAGGSLRLSCAASGIIFYSYAMGWYRPAPGKERELVAAISTGSSTNYADSVKGRFTISRDNAKNTVYLQMNSLKPEDTAVYYCAKSTAVKPYAYRESGFIYDYWGQGTQVTVSS | low polyreactivity |
| QVQLVESGGGLVQAGGSLRLSCAASGIIFYTYAMGWYRQAPGKERELVAAISRSGVRTYYADSVKGRFTISRDNAKNTVYLQMNSLKPEDTAVYYCAVDKGITQGLYDYWGQGTQVTVSS | high polyreactivity |
| QVQLVESGGGLVQAGGSLRLSCAASGIIFYTYVMGWYRQAPGKEREFVAGISTSGGRTDYADSVKGRFTISRDNAKNTVYLQMNSLKPEDTAVYYCNADYWQWYSYWYDYWGQGTQVTVSS | high polyreactivity |
| QVQLVESGGGLVQAGGSLRLSCAASGIIFYTYVMGWYRQAPGKEREFVAGISTSGGRTDYADSVKGRFTISRDNAKNTVYLQMNSLKPEDTAVYYCNKLYRYPRYYYWGQGTQVTVSS | high polyreactivity |
| QVQLVESGGGLVQAGGSLRLSCAASGIIFYVNDMGWYRQAPGKERELVADISGGTSTNYADSVKGRFTISRDNAKNTVYLQMNSLKPEDTAVYYCATAFIVPFPGSDYWGQGTQVTVSS | low polyreactivity |
| QVQLVESGGGLVQAGGSLRLSCAASGIIFYVYAMGWYRQAPGKERELVAAISDTAGDTYYADSVKGRFTISRDNAKNTVYLQMNSLKPEDTAVSYCAADYYPLVGYWGQGTQVTVSS | low polyreactivity |
| QVQLVESGGGLVQAGGSLRLSCAASGIIFYVYAMGWYRQAPGKERELVAAISTSGGSTYYADSVKGRFTISRDNAKNTVYLQMNSLKPEDTAVYYCAADRPARSPKGSVDYWGQGTQVTVSS | high polyreactivity |
| QVQLVESGGGLVQAGGSLRLSCAASGIIFYYNAMGWYRQAPGKERELVAAISWSGGSTYYADSVKGRFTISRDNAKNTVYLQMNSLKPEDTAVYYCNAVRSTSYGSYNYWGQGTQVTVSS | low polyreactivity |
| QVQLVESGGGLVQAGGSLRLSCAASGIIFYYNAMGWYRQAPGKERELVAAISWSGGSTYYADSVKGRFTISRDYAKNSVYLQMNSLKTEDTAVYYCAADYYWRVHYGYWGQGTQVTVSS | high polyreactivity |
| QVQLVESGGGLVQAGGSLRLSCAASGIIFYYYAMGWYRQAPGKERELVAAITGTGSRTYYADSVKGRFTISRDNAKNTVYLQMNSLKPEDTAVYYCNARSFATGSKVPARGYWGQGTQVTVSS | high polyreactivity |
| QVQLVESGGGLVQAGGSLRLSCAASGIIFYYYAMGWYSPAPGKERELVAAISSGGSTYYADSVKGRFTISRDNAKNTVYLQMNSLKPEDTAVYYCAADPLYTIDIEYSTYGDFDYWGQGTQVTVSS | low polyreactivity |
| QVQLVESGGGLVQAGGSLRLSCAASGIIIARNTMGWYRQAPGKERELVAAISTRGTTTYYADSVKGRFTISRDNAENTVYLQMNSLKPEDTAVYYCAAVRVHTDRYNYWGQGTQVTVSS | high polyreactivity |

| Sequence | polyreactivity (PSR sort gate) |
| --- | --- |
| QVQLVESGGGLVQAGGSLRLSCAASGIIIKYYAMGWYRQAPGKERELVAAITDRGGSTYYADSVKGRFTISRDNAKNTVYLQMNSLKPEDTAVYYCAARRRAYTPYYYWGQGTQVTVSS | high polyreactivity |
| QVQLVESGGGLVQAGGSLRLSCAASGIIIRNYGMGCYRQAPGKERELVARIRWTGGSTYYADSVKGRFTISRDNAKNTVYLQMNSLKPEDTAVYYCAADIWQYSRIANYHPYDYWGQGTQVTVSS | low polyreactivity |
| QVQLVESGGGLVQAGGSLRLSCAASGIIIVRYAMGWYRQAPGKERELVAAISRRGGSTYYADSVKGRFTISRDNAKNTVSLQMNSLKPEDTAVYYCAALLGDITGYDYWGQGTQVTVSS | high polyreactivity |
| QVQLVESGGGLVQAGGSLRLSCAASGIILAFNAMGWYRQAPGKEREFVASISQGGSSTYYADSVKGRFTISRDNAKNTVYLQMNSLKREDTAVYYCAARSSRVRSPYQRYYYWGQGTQVTVSS | high polyreactivity |
| QVQLVESGGGLVQAGGSLRLSCAASGIILDRNAMGWYRQAPGKERELDAAINSIGGSTYYADSVKGRFTISRDNAKNTVYLQMNSLKPEDTAVYYCAAPSTSSYYWGQGTQVTVSS | low polyreactivity |
| QVQLVESGGGLVQAGGSLRLSCAASGIILGAYDMGLYRQAPGKERELVAAINRNGDRTYYADSVKGRFTISRDNAKNTVYLQMKSLKPEDTAVYFCAAPRVVRTFDYWGQGTQVTVSS | high polyreactivity |
| QVQLVESGGGLVQAGGSLRLSCAASGIILHYYAMGWYRQAPGKERELVAAISARGGRTYYADSVKGRFTISRDNANNTVYLQMNSLKPEDTAVYYCAAVTVASPTRMDYWGQGTQVTVSS | high polyreactivity |
| QVQLVESGGGLVQAGGSLRLSCAASGIILNYNAMGWYRQAPGKERELVAVIRTRGGSTYYADSVKGRFTISRDNAKNTVYLQMNSLKPEDTAVYYCAAKQIPWHRGGFGYDYWGQGSQVTVSS | low polyreactivity |
| QVQLVESGGGLVQAGGSLRLSCAASGIILPYYAMGWYRQAPGKEREIVATISSDGTSTYYADSVKGRFTISRDNAKNTVYLQMNSLKPEDTAVYYCAARIRQNPGGDNSWGQGTQVTVSS | low polyreactivity |
| QVQLVESGGGLVQAGGSLRLSCAASGIILRGYVIGWYRQAPGQERELVAAISTSGGRTYYADSVKGRFTISRDNAKNTVYLQMNSLKQEDTAVYYCAAVSSRLWLYDYWGQGTQVTVSS | high polyreactivity |
| QVQLVESGGGLVQAGGSLRLSCAASGIILSDNAMGWYRQAPGKEREFVAAITGSCGSTYYADSVKGRFTISRDYAKKTDDLQMNSLKPEDTAVYYCSADGPFGYYYGHYGYWGQVTQVTVSS | low polyreactivity |
| QVQLVESGGGLVQAGGSLRLSCAASGIILSDNAMGWYRQAPGKEREIVAAITGSGGSTYYADSVKGRFTISRDNAKNTVYLQMNSLKPEDTAVYYCAADGPYGYYYGHYGYWGQGTQVTVSS | low polyreactivity |
| QVQLVESGGGLVQAGGSLRLSCAASGIILVNNAMGWYRQAPGTEREFVAAIRYSAGSTYYADSVKGRFTISRDTAKNTVYLQMNSLKAEDTAVYYCARRWKGGWYEYGYWGQGTQVTVAS | high polyreactivity |
| QVQLVESGGGLVQAGGSLRLSCAASGIILWRNAMGWYRQAPGKDRELVAAITSSGGRTYYADSVKGRFTISRDNAKNTVYLQMNSLKPEDTAVYYCSAYGYSIGPYDYWGQGTQVTVSS | high polyreactivity |
| QVQLVESGGGLVQAGGSLRLSCAASGIILYGYAMGWYRQAPGKARELVAALTWSGGSTYYADSVKGRFTISRDNAKNTVYLQMNSLKPEDTAVYYCAVDVHTSADASLPQEYDYWGQGTQVTVSS | low polyreactivity |
| QVQLVESGGGLVQAGGSLRLSCAASGIILYPYAMGWYRQAPGKERELVAAISWSGGSTYYADSVKGRFTISRDKAKNTVYLQMNSLKPEDTAVYYCNARYYGPSWNSYDYWGQGTQVTVSS | high polyreactivity |
| QVQLVESGGGLVQAGGSLRLSCAASGIILYPYFMGWYIQAPGKERELVAAISYSGGSTYYADSVKGRFTISGDNAKNTVYLQMNSLKPEDTAVYYCAAVPVTSQTKYGYWGQGTQVTVSS | high polyreactivity |
| QVQLVESGGGLVQAGGSLRLSCAASGIISIFIVMGGYRQAPGKERELVASITGRGGSTFYADSVKGRFTISRDNAKNTVYLQMNSLKPEDTAVYYCATDTGYTYPVTGLYDYWGQGTQVTVSS | low polyreactivity |
| QVQLVESGGGLVQAGGSLRLSCAASGIISRVYAMGWYRLAPGKERELVAAISGSGGTTYYADSVKGRFTISRDNAKNTVYLLMNSLKPEDTAVYYCAARYKALYDYWGQGSQVTVSS | high polyreactivity |
| QVQLVESGGGLVQAGGSLRLSCAASGIISSVYAMGWYRQARGKERELVAAISGSGGSTYYADSVKGRFTISRDNAKNTVYLQMNSLKPEDTAVYYCAKGYQYQGNSYGYWGQGTQVTVSS | low polyreactivity |
| QVQLVESGGGLVQAGGSLRLSCAASGIISSYYAMGWYRQAPGKERELVAAISKSGGSTDYADSVKGRFTISRDNAKNTVYLQMNSLKPEDTAVYYCAADAYWSYSTRYWFAYDYWGQGTQVTVSS | low polyreactivity |
